One molecule from PMC2781463 (The Journal of Biological Chemistry, 2009) can be followed below.

The assay addresses Blom7α-His6 (pET-30a(+)) (human, UniProt Q7Z7F0-1 1-614). Kind of assay: pull-down.

B1: GST-SNEV^Prp19-Pso4 (natural protein)
chain: MSLICSISNEVPEHPCVSPVSNHVYERRLIEKYIAENGTDPINNQPLSEEQLIDIKVAHPIRPKPPSATSIPAILKALQDEWDAVMLHSFTLRQQLQTTRQELSHALYQHDAACRVIARLTKEVTAAREALATLKPQAGLIVPQAVPSSQPSVVGAGEPMDLGELVGMTPEIIQKLQDKATVLTTERKKRGKTVPEELVKPEELSKYRQVASHVGLHSASIPGILALDLCPSDTNKILTGGADKNVVVFDKSSEQILATLKGHTKKVTSVVFHPSQDLVFSASPDATIRIWSVPNASCVQVVRAHESAVTGLSLHATGDYLLSSSDDQYWAFSDIQTGRVLTKVTDETSGCSLTCAQFHPDGLIFGTGTMDSQIKIWDLKERTNVANFPGHSGPITSIAFSENGYYLATAADDSSVKLWDLRKLKNFKTLQLDNNFEVKSLIFDQSGTYLALGGTDVQIYICKQWTEILHFTEHSGLTTGVAFGHHAKFIASTGMDRSLKFYSL
In the case of B1, the binding result is given as “binds”.
